Data published in patent US9809808B2, “Antimicrobial agents” (KATHOLIEKE UNIVERSITEIT LEUVEN K.U. LEUVEN R&D, priority 2008, dated 2017).
Read-outs that look alike come from different tables or passages of the source.

Columns and labels:
[1] = tested on: P. aeruginosa Br667; experiment: Antibacterial activity of PSP3gp10 and PKPSP3gp10 with and without EDTA (30 minutes, colony count); type: cell-based, Pseudomonas aeruginosa
[2] = tested on: Escherichia coli WK6; experiment: as above; type: cell-based
Procedure: (§1) To determine the anti-Gram-negative spectrum of the PKPSP3gp10 endolysin according to SEQ ID NO: 53, a combination of 1.315 μM PKPSP3gp10 endolysin and 0.5 mM EDTA was tested on the clinical P. aeruginosa strains PAO1p and Br667, Escherichia coli WK6, and Salmonella typhimurium (see Table 5). Exponential growing bacterial cells (OD600 nm of 0.6) were 100-fold diluted to a final density of about 10^6/ml of each strain were incubated for 30 minutes at room temperature without shaking with unmodified endolysin […] (SEQ ID NO: 8) and modified endolysin PKPSP3gp10 (SEQ ID NO: 53) each in combination without and with 0.5 mM EDTA. […] As a control each strain was also incubated for 30 minutes with 0.5 mM EDTA (in same buffer as outlined above) but no endolysin.
(§2) After incubation cell suspensions were diluted three times (respectively 10^5-10^4-10^3 cells/ml) and 100 μl of each dilution was plated out on LB-medium.

[3] = tested on: Salmonella typhimurium LT2; experiment: as above; type: cell-based
Procedure: as §1, §2

[4] = tested on: P. aeruginosa Br667; experiment: Antibacterial activity of P2gp09 and PKP2gp09 with and without EDTA (30 minutes, colony count); type: cell-based, Pseudomonas aeruginosa; conditions: for relative inactivation in logarithmic units (log10N0/Ni): 30 minutes
[5] = tested on: P. putida G1; experiment: as above; type: cell-based, Pseudomonas putida; conditions: for relative inactivation in logarithmic units (log10N0/Ni): 30 minutes
[6] = tested on: Burkholderia pseudomallei; type: cell-based; conditions: for relative inactivation in logarithmic units (log10N0/Ni): 30 minutes
[7] = tested on: Escherichia coli WK6; experiment: Antibacterial activity of P2gp09 and PKP2gp09 with and without EDTA (30 minutes, colony count); type: cell-based; conditions: for relative inactivation in logarithmic units (log10N0/Ni): 30 minutes
Procedure: To determine the anti-Gram-negative spectrum of the PK2gp09 endolysin according to SEQ ID NO: 57, a combination of 1.315 μM PK2gp09 endolysin and 0,5 mM EDTA was tested on the clinical P. aeruginosa strains PAO1p and Br667 and on Escherichia coli WK6 (see Table 9). Exponential growing bacterial cells (OD600 nm of 0.6) were 100-fold diluted to a final density of about 10^6/ml of each strain was incubated for 30 minutes at room temperature without shaking with unmodified endolysin P2gp09 (SEQ ID NO: 9) and modified endolysin PKP2gp09 (SEQ ID NO: 57) each in combination without and with 0.5 mM EDTA. […] As a control each strain was also incubated for 30 minutes with 0.5 mM EDTA (in same buffer as outlined above) but no endolysin. After incubation cell suspensions were diluted three times (respectively 10^5-10^4-10^3 cells/ml) and 100 μl of each dilution was plated out on LB-medium.

[8] = 1.315 μM endolysin + 0.5 mM EDTA

| Molecule | relative inactivation in logarithmic units (log10N0/Ni) [1, 8] | relative inactivation in logarithmic units (log10N0/Ni) ([1]; 1.315 μM endolysin, no EDTA) | relative inactivation in logarithmic units (log10N0/Ni) [2, 8] | relative inactivation in logarithmic units (log10N0/Ni) ([2]; 1.315 μM endolysin, no EDTA) | relative inactivation in logarithmic units (log10N0/Ni) [3, 8] | relative inactivation in logarithmic units (log10N0/Ni) ([3]; 1.315 μM endolysin, no EDTA) | relative inactivation in logarithmic units (log10N0/Ni) [4, 8] | relative inactivation in logarithmic units (log10N0/Ni) ([4]; 1.315 μM endolysin, no EDTA) | relative inactivation in logarithmic units (log10N0/Ni) [5, 8] | relative inactivation in logarithmic units (log10N0/Ni) ([5]; 1.315 μM endolysin, no EDTA) | relative inactivation in logarithmic units (log10N0/Ni) [6, 8] | relative inactivation in logarithmic units (log10N0/Ni) ([6]; 1.315 μM endolysin, no EDTA) | relative inactivation in logarithmic units (log10N0/Ni) [7, 8] | relative inactivation in logarithmic units (log10N0/Ni) ([7]; 1.315 μM endolysin, no EDTA) | further results |
| --- | --- | --- | --- | --- | --- | --- | --- | --- | --- | --- | --- | --- | --- | --- | --- |
| PSP3gp10: SEQ ID NO: 8: unmodified globular endolysin with 165 amino acid residues originating from Salmonella typhimurium phage PSP3 (protein, PSP3gp10) MPVINTHQNIAAFLDMLAYSEGTANHPLTKNRGYDVIVTGFDGSPEIFTDYSDHPFAHGRPPKVFNRRGEKSTASGRYQQLYIFWPHYKKQLALPDFSPLSQDKLAIQLIRERGAIDDIRAGRIERAVSRCRNIWASLPGAGYGQREHSLEKLVTVWRTAGGVMA | 0.571 +/− 0.035 logarithmic units | 0.375 +/− 0.056 logarithmic units | 0.387 +/− 0.014 logarithmic units | 0.190 +/− 0.029 logarithmic units | 0.690 +/− 0.036 logarithmic units | 0.283 +/− 0.038 logarithmic units | – | – | – | – | – | – | – | – | – |
| P2gp09: SEQ ID NO: 9: unmodified globular endolysin of 165 amino acid residues originating from Escherichia coli phage P2 (protein, P2gp09) MPVINTHQNIAAFLDMLAVSEGTANHPLTKNRGYDVIVTGLDGKPEIFTDYSDHPFAHGRPAKVFNRRGEKSTASGRYQQLYLFWPHYRKQLALPDFSPLSQDRLAIQLIRERGALDDIRAGRIERAISRCRNIWASLPGAGYGQREHSLEKLVTVWRTAGGVPA | – | – | – | – | – | – | 0.582 logarithmic units | 0.246 logarithmic units | 3.919 logarithmic units | 0.419 logarithmic units | 3.8909 logarithmic units | 0.769 logarithmic units | 0.784 logarithmic units | 0.751 logarithmic units | – |
| PKPSP3gp10: SEQ ID NO: 53: PSP3gp10 (SEQ ID NO: 8) with N-terminal peptide stretch KRKKRKKRK (SEQ ID NO: 11) (protein, PKPSP3gp10) MGSKRKKRKKRKPVINTHQNIAAFLDMLAYSEGTANHPLTKNRGYDVIVTGFDGSPEIFTDYSDHPFAHGRPPKVFNRRGEKSTASGRYQQLYIFWPHYKKQLALPDFSPLSQDKLAIQLIRERGAIDDIRAGRIERAVSRCRNIWASLPGAGYGQREHSLEKLVTVWRTAGGVMA | 0.891 +/− 0.118 logarithmic units | 0.353 +/− 0.086 logarithmic units | 0.584 +/− 0.024 logarithmic units | 0.205 +/− 0.088 logarithmic units | 0.850 +/− 0.032 logarithmic units | 0.327 +/− 0.057 logarithmic units | – | – | – | – | – | – | – | – | – |
| PKP2gp09: SEQ ID NO: 57: P2gp09 (SEQ ID NO: 9) with N-terminal peptide stretch KRKKRKKRK (SEQ ID NO: 11) (protein, PKP2gp09) MGSKRKKRKKRKPVINTHQNIAAFLDMLAVSEGTANHPLTKNRGYDVIVTGLDGKPEIFTDYSDHPFAHGRPAKVFNRRGEKSTASGRYQQLYLFWPHYRKQLALPDFSPLSQDRLAIQLIRERGALDDIRAGRIERAISRCRNIWASLPGAGYGQREHSLEKLVTVWRTAGGVPA | – | – | – | – | – | – | 0.952 +/− 0.213 logarithmic units | 0.300 +/− 0.062 logarithmic units | >4,386 logarithmic units | 1.014 +/− 0.139 logarithmic units | 4.255 +/− 0.001 logarithmic units | 1.163 +/− 0.073 logarithmic units | 1.545 +/− 0.102 logarithmic units | 1.104 +/− 0.039 logarithmic units | Δ, difference of activity between P2gp09 and PKP2gp09 samples ([4]; 1.315 μM + 0.5 mM EDTA): 0.370 logarithmic units; Δ, difference of activity between P2gp09 and PKP2gp09 samples ([4]; 1.315 μM, no EDTA): 0.054 logarithmic units; Δ, difference of activity between P2gp09 and PKP2gp09 samples ([5]; 1.315 μM + 0.5 mM EDTA): >0.467 logarithmic units; Δ, difference of activity between P2gp09 and PKP2gp09 samples ([5]; 1.315 μM, no EDTA): 0.595 logarithmic units; Δ, difference of activity between P2gp09 and PKP2gp09 samples ([6]; 1.315 μM + 0.5 mM EDTA): 0.365 logarithmic units; Δ, difference of activity between P2gp09 and PKP2gp09 samples ([6]; 1.315 μM, no EDTA): 0.394 logarithmic units; Δ, difference of activity between P2gp09 and PKP2gp09 samples ([7]; 1.315 μM + 0.5 mM EDTA): 0.749 logarithmic units; Δ, difference of activity between P2gp09 and PKP2gp09 samples ([7]; 1.315 μM, no EDTA): 0.353 logarithmic units |
